Here are results for five molecules from article PMC9972897 (Science immunology, 2023).

Assay [1] deals with SARS-CoV-2 S Omicron BA.4/BA.5, C-terminally truncated, expressed on 293T cells (SARS-CoV-2, Omicron BA.4/BA.5, strain). In words: flow cytometry on cells. The following applies: one partner purified. (Flow cytometry measures light scatter and fluorescence of single cells or particles in a stream.)
For assay [2], the target named is SARS-CoV-2 S Omicron BA.1, C-terminally truncated, expressed on 293T cells (SARS-CoV-2, Omicron BA.1 (B.1.1.529), strain). Briefly: flow cytometry on cells. The conditions noted are these: one partner purified.
The target of assay [3] is SD1-RBD of SARS-CoV-2 S, Omicron BA.4/BA.5 (SARS-CoV-2 Omicron BA.4/BA.5 (GenBank …, strain)). Briefly: ELISA. The following applies: both partners purified. For orientation: An ELISA detects its analyte on a solid surface through an enzyme-linked reagent.
In assay [4] the target is SD1-RBD of SARS-CoV-2 S, Gamma (SARS-CoV-2, Gamma (B.1.1.28.1), strain). In words: ELISA. The conditions noted are these: both partners purified.
Assay [5] addresses SD1-RBD of SARS-CoV-2 S, Omicron BA.2 (SARS-CoV-2, Omicron BA.2, strain). In words: ELISA. The conditions noted are these: both partners purified.
In assay [6] the target is SD1-RBD of SARS-CoV-2 S, Beta (SARS-CoV-2, Beta (B.1.351), strain). In words: ELISA. The conditions noted are these: both partners purified.
In assay [7] the target is SD1-RBD of SARS-CoV-2 S, Delta (SARS-CoV-2, Delta (B.1.617.2), strain). In words: ELISA. The following applies: both partners purified.
Assay [8] has as its target SD1-RBD of SARS-CoV-2 S, Omicron BA.1 (SARS-CoV-2, Omicron BA.1 (B.1.1.529), strain). In words: ELISA. The conditions noted are these: both partners purified.
The target in assay [9] is SD1-RBD of SARS-CoV-2 S, Omicron BA.2.75 (SARS-CoV-2 Omicron BA.2.75 (GenBank …, strain)). In words: ELISA. The following applies: both partners purified.
Assay [10] concerns the target SD1-RBD of SARS-CoV-2 S, Alpha (SARS-CoV-2, Alpha (B.1.1.7), strain). Briefly: ELISA. The conditions noted are these: both partners purified.
Assay [11] deals with SARS-CoV-2 S-2P ectodomain trimer (ancestral) (SARS-CoV-2 (ancestral, MN908947), stabilised). Briefly: SPR. The following applies: both partners purified.

B1: fp.006 monoclonal antibody (IgG) (antibody, V domains shown)
VH: EVQLVESGGGVVQPGGSLRLSCAASGFNFNNYALHWVRQAPGKGLEWVAIISYEARNKKYGVSVMGRFSISRDNSKSIMYLEMNSLRVEDTGVYYCARDLFLSDYDRSGYDPTRGGFDHWGQGTLVTVSS
VL: EIVMTQSPATLSVSPGERATLSCRASQSVSSSLAWYQHRFGQAPRLLISGASTRATGIPGRFSGSGSGTEFTLTISSLQSEDVAVYYCQQYGDWPLVTFGGGTKVEIK
As to B1, the “fold increase of binding (gMFI) with soluble ACE2” value (shortened to “fold increase of binding (gMFI)”) in assay [1] is 8.2 fold; in [2], 5.3 fold.

B2: hr2.023 monoclonal antibody (IgG) (antibody, V domains shown)
VH: QVQLVQSGAEVKKPGASVKVSCRASENIFSDSYLHWVRQAPGQGLEWMGIITPSGDKTFYAQQFQGRLTMTRDTPTNTLHMDLRGLTSADTAIYYCARQATKGGWDYWGQGTLVTVSS
VL: EIVLTQSPGTLSLSPGESATLSCRASQSVTRNYLAWYQQQPGQAPRLLIYGASNRATGVPDRFSGSGSGTDFTLTISRLEPEDFAVYYCQQYGSSPPTFIFGPGTKVDIK
As to B2, the “fold increase of binding (gMFI)” value came to 5.3 fold in [1] and 5.8 fold in assay [2].

B3: sd1.040 monoclonal antibody (IgG) (antibody, V domains shown)
VH: QVQLVQSGAEVKKPGASVKVSCKASGYTFTSFYIHWVRQAPGQGLEWMGIIDPSGGSTSYPQKFQGRVTMTRDTSTSTVYMDLSSLRSEDTAVYYCTRDGSAGDNSWFDPWGQGTLVTVSS
VL: not shown
As to B3, the binding result in assay [3], in assay [4], in assay [5], in assay [6], in assay [7] and in [8] was “binds” each time. The binding result in assay [9] and in [10] was “binds” in each case.

B4: sd1.040 Fab (Fab, V domains shown)
VH: QVQLVQSGAEVKKPGASVKVSCKASGYTFTSFYIHWVRQAPGQGLEWMGIIDPSGGSTSYPQKFQGRVTMTRDTSTSTVYMDLSSLRSEDTAVYYCTRDGSAGDNSWFDPWGQGTLVTVSS
VL: not shown
Consider B4, for which, in assay [11], the affinity, expressed as Kd, was 0.2 nM.

B5: hr2.016 monoclonal antibody (IgG) (antibody, V domains shown)
VH: EVQLLESGGGLVQPGGSLRLSCAASGFMFSKYAMTWVRQTPGKGLEWVSVISGGGGSTYYADSVKGRFTISRDNSKNTLYLQMNSLRAEDTAVYYCAKLLVVFVIDYWGQGALVTVSS
VL: EIVLTQSPGTLSLSPGERATLFCRASQSVSSNLAWYQQKPGRAPRLLISGASSRATGIPDRFSGSGSGTDFTLTISRLEPEDFAVYYCQQYGSSPPTFGQGTKVEIK
With B5, the “fold increase of binding (gMFI)” value in [1] is 4.6 fold; in assay [2] it was 4.9 fold.
